Experiment [1] addresses T1, Human EphA2 (ephrin receptor A2) on cells (human, UniProt P29317 25-976). In words: cell-based or functional assay.
In experiment [2] the target is T1, Human EphA2 (ephrin receptor A2) on …. In words: cell-based or functional assay. The source holds these as a separate data set.
The target in experiment [3] is T2, hEphA2-FN2-(437-534) - Fc (human, UniProt P29317 437-534).
T2 construct: also called FN2 domain Fc fusion; not shown: human Fc, C-terminal to the EphA2 part
T2 sequence (P29317 437-534): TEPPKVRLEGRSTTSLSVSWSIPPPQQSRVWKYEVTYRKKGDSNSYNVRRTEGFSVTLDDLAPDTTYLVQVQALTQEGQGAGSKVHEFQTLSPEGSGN
Put plainly: SPR Biacore, 25 C; hEphA2-Fc fusion captured by anti-human Fc, Fab analyte. As to the method:
(§1) The hEphA2-Fc fusions were captured with an anti-human Fe immobilized to a CM5 chip.
(§2) Biacore® assays were conducted at 25° C. using HBS-EP+ buffer (0.01 M HEPES pH 7.4, 0.15 M NaCl, 3 mM EDTA, 0.005% v/v Surfactant P20). Data was double-reference subtracted and data was analyzed using 1:1 Langmuir binding model and steady-state model in Biacore Evaluation software.
(§3) Binding to hEphA2-ECD-Fc tested using 100, 300, and 900 nM analyte.

In experiment [4] the target is T3, hEphA2-FN12-(327-534) - Fc (human, UniProt P29317 327-534).
T3 construct: also called FN1-FN2 domains Fc fusion; not shown: human Fc, C-terminal to the EphA2 part
T3 sequence (P29317 327-534): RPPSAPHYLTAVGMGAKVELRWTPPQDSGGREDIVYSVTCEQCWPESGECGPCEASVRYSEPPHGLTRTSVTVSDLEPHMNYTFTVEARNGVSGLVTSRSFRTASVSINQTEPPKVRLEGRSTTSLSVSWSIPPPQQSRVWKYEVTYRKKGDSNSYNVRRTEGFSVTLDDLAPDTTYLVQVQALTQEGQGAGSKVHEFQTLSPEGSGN
The experiment is described as above. As to the method: as §1, §2, §3

The target of a further experiment is T4, hEphA2-clv435-534-Fc (human, UniProt P29317 435-534).
T4 construct: Recombinant fragment representing a cleavage form; not shown: human Fc, C-terminal to the EphA2 part
T4 sequence (P29317 435-534): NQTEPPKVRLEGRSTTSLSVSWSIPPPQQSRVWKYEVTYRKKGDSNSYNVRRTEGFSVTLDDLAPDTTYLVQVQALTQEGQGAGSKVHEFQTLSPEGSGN
The experiment is described as above. As to the method: as §1, §2, §3

A further experiment concerns the target T5, hEphA2-clv432-534-Fc (human, UniProt P29317 432-534).
T5 construct: Recombinant fragment representing a cleavage form; not shown: human Fc, C-terminal to the EphA2 part
The description is as above. On the procedure: as §1, §2, §3

In the next experiment the target is T6, hEphA2-clv385-534-Fc (human, UniProt P29317 385-534).
T6 construct: Recombinant fragment representing a cleavage form; not shown: human Fc, C-terminal to the EphA2 part
T6 sequence (P29317 385-534): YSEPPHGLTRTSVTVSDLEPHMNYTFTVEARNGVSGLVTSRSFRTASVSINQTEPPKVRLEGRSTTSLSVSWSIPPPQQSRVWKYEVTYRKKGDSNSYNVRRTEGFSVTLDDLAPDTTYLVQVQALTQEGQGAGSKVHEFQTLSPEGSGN
The experiment is described as above. On the procedure:
as §1, §2, §3

The next experiment deals with T7, hEphA2-clv395-534-Fc (human, UniProt P29317 395-534).
T7 construct: Recombinant fragment representing a cleavage form; not shown: human Fc, C-terminal to the EphA2 part
T7 sequence (P29317 395-534): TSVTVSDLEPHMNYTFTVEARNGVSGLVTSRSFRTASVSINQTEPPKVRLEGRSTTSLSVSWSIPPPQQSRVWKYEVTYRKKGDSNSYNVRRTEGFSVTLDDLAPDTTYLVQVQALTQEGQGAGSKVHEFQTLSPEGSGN
The description is as above. As to the method:
as §1, §2, §3

The target in experiment [5] is T1, Human EphA2 (ephrin receptor A2) on …. In words: flow cytometry on A549 cells. As to the method: (§4) Surface binding of the antibodies to in vitro grown cell lines was assessed by flow cytometry. Tumor cells were detached from their culture plate using Versene and counted. Cells were staining in BSA-containing buffer with primary antibody for 30 minutes at 4° C. with shaking. Following, cells were washed and stained with secondary PE-labeled antibody for 30 minutes at 4° C. with shaking. Before analysis on an Intellicyt iQue3 scanner, cells were counterstained with DAPI. MedFI values from live, single cells was expressed as fold over isotype control.

Experiment [6] has the same target. In words: cell-based or functional assay. The source holds these as a separate data set.
Experiment [7] has the same target. Put plainly: cell-based or functional assay. This is another data set of the same source.
In experiment [8] the target is human 4-1BB on reporter cells (human, UniProt Q07011 24-255). In words: cell-based or functional assay.
Sequence of human 4-1BB on reporter cells (Q07011 24-255): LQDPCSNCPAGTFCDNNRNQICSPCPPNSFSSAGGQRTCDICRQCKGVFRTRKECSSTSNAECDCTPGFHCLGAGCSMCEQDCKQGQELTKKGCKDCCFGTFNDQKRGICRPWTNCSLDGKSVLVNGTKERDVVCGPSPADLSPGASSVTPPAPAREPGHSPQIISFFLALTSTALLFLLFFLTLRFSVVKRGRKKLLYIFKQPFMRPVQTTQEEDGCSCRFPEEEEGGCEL
Experiment [9] has as its target T8, EphA4_ECD (aa 23-546), Full ECD, displayed on yeast (human, UniProt P54764 23-546).
T8 construct: also called EphA4 full ECD
Put plainly: yeast surface display, flow cytometry titration. In general terms: A flow cytometer gives signals particle by particle.

Experiment [10] addresses T9, mouse EphA2 on mouse tumour cells (mouse, UniProt Q03145 26-977).
T9 construct: whole, on cells
In words: flow cytometry, CT26 cells (in vitro). On the procedure: as §4

Experiment [11] deals with T9, mouse EphA2 on mouse tumour cells. Put plainly: cell-based or functional assay.
In experiment [12] the target is T10, EphA4 (homologous receptor, screening at Integral Molecular) (human, UniProt P54764 20-986).
T10 construct: whole, on cells
T10 sequence (P54764 20-986): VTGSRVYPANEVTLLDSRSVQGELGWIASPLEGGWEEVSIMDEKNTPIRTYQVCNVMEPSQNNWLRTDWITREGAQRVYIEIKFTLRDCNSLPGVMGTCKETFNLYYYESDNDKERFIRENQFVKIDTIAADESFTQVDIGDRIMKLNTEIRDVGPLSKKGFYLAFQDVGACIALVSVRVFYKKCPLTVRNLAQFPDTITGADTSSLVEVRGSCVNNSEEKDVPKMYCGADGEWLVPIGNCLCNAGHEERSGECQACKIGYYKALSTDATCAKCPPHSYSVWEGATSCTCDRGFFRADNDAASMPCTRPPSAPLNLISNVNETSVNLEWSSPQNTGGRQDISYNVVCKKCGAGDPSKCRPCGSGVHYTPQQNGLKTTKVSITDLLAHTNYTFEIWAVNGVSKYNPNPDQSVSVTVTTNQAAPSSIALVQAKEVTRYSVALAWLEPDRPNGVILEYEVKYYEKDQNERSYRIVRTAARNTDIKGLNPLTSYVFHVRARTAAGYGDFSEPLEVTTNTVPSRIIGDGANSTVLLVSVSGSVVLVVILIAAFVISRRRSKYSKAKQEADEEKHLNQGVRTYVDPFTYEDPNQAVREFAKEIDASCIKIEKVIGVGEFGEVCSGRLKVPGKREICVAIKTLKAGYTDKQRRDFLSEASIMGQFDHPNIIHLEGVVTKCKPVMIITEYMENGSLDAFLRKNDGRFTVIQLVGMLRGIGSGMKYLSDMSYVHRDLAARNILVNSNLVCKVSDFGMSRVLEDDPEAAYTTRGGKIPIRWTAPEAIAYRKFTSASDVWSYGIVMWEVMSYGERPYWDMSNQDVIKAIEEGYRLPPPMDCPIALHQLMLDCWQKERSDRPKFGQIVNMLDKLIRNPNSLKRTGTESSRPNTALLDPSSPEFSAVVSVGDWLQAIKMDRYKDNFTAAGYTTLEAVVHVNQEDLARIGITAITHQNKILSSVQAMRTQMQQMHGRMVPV
In words: membrane protein screening on cells.

The target in a further experiment is T11, FcGR1 (human, UniProt P12314 16-374).
T11 construct: whole, on cells
T11 sequence (P12314 16-374): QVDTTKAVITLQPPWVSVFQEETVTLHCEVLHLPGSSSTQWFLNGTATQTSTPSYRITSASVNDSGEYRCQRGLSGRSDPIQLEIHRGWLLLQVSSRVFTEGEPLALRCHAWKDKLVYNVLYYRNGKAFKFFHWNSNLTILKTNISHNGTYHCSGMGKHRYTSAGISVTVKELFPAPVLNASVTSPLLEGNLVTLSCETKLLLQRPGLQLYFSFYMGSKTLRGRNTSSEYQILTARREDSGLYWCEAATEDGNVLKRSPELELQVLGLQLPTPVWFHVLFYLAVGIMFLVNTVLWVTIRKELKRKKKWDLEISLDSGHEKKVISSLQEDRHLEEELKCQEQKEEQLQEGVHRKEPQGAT
Put plainly: flow cytometry, 6,000 human membrane proteins expressed on HEK293 cells.

We go through five molecules from patent US20250276077A1 (IMMUNOME, published 2025).

T5 sequence (P29317 432-534): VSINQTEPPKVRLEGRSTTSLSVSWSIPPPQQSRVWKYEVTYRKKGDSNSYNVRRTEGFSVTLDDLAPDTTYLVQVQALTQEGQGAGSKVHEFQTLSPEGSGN
T1 sequence (P29317 25-976): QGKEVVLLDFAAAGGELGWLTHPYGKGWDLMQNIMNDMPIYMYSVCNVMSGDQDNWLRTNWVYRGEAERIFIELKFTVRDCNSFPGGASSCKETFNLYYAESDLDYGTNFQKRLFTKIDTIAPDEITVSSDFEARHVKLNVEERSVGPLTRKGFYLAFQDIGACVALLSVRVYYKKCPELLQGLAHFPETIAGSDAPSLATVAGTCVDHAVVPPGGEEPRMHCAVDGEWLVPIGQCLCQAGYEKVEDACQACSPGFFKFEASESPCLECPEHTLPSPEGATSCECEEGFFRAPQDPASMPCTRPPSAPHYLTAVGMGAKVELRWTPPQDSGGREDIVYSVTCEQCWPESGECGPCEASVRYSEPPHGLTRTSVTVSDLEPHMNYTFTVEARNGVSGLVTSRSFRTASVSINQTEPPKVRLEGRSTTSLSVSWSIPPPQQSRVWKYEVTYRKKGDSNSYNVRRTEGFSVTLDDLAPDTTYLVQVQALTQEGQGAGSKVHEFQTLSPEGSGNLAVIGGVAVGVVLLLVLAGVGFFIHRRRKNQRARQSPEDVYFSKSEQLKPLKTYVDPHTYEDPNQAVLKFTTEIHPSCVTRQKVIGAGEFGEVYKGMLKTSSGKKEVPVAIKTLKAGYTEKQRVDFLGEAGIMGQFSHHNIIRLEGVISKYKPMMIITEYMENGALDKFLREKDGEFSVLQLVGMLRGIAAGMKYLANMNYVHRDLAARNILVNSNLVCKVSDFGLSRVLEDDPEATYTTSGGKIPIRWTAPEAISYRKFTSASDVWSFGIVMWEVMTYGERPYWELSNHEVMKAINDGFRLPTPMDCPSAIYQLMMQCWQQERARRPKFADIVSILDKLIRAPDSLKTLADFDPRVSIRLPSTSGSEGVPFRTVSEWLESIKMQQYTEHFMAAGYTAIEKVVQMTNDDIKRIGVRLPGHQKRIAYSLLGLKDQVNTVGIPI
T9 sequence (Q03145 26-977): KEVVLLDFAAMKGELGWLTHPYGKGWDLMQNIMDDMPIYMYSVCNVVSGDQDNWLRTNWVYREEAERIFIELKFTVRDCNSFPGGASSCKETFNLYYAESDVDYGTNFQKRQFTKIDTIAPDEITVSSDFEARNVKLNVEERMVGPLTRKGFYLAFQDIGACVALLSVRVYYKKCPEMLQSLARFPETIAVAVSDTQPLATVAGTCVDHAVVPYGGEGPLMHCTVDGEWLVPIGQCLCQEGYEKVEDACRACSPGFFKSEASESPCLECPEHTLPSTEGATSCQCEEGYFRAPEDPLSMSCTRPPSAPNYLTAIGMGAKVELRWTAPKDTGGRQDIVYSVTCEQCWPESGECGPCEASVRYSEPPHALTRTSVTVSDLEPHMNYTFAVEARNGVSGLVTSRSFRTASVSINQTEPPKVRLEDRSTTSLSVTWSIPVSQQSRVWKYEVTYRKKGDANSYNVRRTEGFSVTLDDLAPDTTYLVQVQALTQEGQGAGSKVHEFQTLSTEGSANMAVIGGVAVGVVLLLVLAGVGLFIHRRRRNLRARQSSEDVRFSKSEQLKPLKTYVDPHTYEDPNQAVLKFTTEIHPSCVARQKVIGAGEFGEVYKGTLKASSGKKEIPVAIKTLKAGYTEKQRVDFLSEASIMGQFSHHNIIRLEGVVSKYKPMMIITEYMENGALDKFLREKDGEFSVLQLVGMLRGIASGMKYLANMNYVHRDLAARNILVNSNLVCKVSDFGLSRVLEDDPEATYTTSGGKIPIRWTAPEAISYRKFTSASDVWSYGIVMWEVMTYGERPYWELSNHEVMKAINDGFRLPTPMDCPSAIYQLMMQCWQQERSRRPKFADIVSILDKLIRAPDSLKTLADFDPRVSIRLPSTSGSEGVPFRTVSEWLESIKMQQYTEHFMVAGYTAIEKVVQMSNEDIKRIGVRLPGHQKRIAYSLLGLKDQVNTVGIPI
T8 sequence (P54764 23-546 limits assumed): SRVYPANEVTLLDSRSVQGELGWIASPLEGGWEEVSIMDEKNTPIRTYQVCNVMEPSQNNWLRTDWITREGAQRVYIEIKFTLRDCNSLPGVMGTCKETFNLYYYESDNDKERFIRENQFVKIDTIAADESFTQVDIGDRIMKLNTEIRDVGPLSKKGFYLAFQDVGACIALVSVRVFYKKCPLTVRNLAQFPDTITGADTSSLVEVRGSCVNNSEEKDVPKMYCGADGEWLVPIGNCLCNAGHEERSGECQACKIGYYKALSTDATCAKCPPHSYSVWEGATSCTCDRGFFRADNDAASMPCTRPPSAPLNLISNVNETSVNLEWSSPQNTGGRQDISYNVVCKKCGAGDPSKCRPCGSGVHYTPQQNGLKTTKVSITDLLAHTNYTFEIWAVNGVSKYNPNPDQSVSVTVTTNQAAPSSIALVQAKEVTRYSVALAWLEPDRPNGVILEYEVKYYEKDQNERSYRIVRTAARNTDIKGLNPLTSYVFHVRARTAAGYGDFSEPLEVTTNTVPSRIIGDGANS

B1: AB-010699 (antibody, V domains shown)
VH: QVQLQQWGAGLLKPSETLSLTCAVYGGSFSGYYWSWIRQPPGKGLEWIGEINHRGSINYNNYNPSLKSRVTISVDTSKNQFSLKLSSVTAADTAVYYCAKPLRPHCINGVCYSGDAFDIWGQGTMVTVAS
VL: SYVLTQPPSVSVAPGQTARITCGGNNIGYKNVHWYQQKPGQAPVLVVYDDSDRPSGIPERFSGSNSGNTATLTISRVEAGDEADYYCQVWDHSSDHVVFGGGTKLTVL
Consider B1, for which the “EC50 (read off the curve), EphA2 pY588 phosphorylation, soluble agonist titration” value in experiment [1] was around 3e-09 M. In addition, in experiment [2], the “ADCC - EC50 (nM), Trial 1, A549” value was around 0.014 nM and the “ADCC - EC50 (nM), Trial 2, A549” value stood at 0.0058 nM.

B2: AB-010699 human Fab fragment (Fab, V domains shown)
VH: QVQLQQWGAGLLKPSETLSLTCAVYGGSFSGYYWSWIRQPPGKGLEWIGEINHRGSINYNNYNPSLKSRVTISVDTSKNQFSLKLSSVTAADTAVYYCAKPLRPHCINGVCYSGDAFDIWGQGTMVTVAS
VL: SYVLTQPPSVSVAPGQTARITCGGNNIGYKNVHWYQQKPGQAPVLVVYDDSDRPSGIPERFSGSNSGNTATLTISRVEAGDEADYYCQVWDHSSDHVVFGGGTKLTVL
notes: Human Fab format
The term Kd denotes a measure of binding affinity in units of concentration. A word on the koff: it is the rate constant with which the complex falls apart. The term kon denotes a measure of how fast the partners come together. Low readings indicate slower complex formation, high ones faster complex formation. Take B2: the Kd in [3] worked out at 8.6 nM; in [4], 8.6 nM; in the experiment with hEphA2-clv435-534-Fc, 9.3 nM; in the experiment with hEphA2-clv432-534-Fc, 9.6 nM; with hEphA2-clv385-534-Fc it was 12 nM; in the experiment with hEphA2-clv395-534-Fc, 12 nM. Also, the off-rate constant (koff) was 0.085 s⁻¹ in experiment [3]; 0.043 s⁻¹ in [4]; 0.078 s⁻¹ with hEphA2-clv435-534-Fc; 0.075 s⁻¹ with hEphA2-clv432-534-Fc; 0.072 s⁻¹ with hEphA2-clv385-534-Fc; 0.07 s⁻¹ with hEphA2-clv395-534-Fc. Also, the association rate constant (kon) in [3] was 1e+07 M⁻¹ s⁻¹; in experiment [4], 5e+06 M⁻¹ s⁻¹; with hEphA2-clv435-534-Fc, 8.42e+06 M⁻¹ s⁻¹; with hEphA2-clv432-534-Fc, 7.78e+06 M⁻¹ s⁻¹; with hEphA2-clv385-534-Fc it was 6.05e+06 M⁻¹ s⁻¹; with hEphA2-clv395-534-Fc, 5.72e+06 M⁻¹ s⁻¹.

B3: AB-009815 (antibody, mouse IgG2a, V domains shown)
VH: QVQLQQWGAGLLKPSETLSLTCAVYGGSFSDYYWSWIRQPPGKGLEWIGEVNHRGSINYNNYNPSLKSRVTISVDTSKNQFSLKLTSVTAADTAVYYCAKPLRPHCTNGVCYSGDAFDIWGQGTMVTVAS
VL: SYVLTQPPSVSVAPGQTARITCGGNNIGSKNVHWYQQKPGQAPVLVVYDDSDRPSGIPEQFSGSNSGNTATLTISRVEAGDEADYYCQVWDSSSDHLVFGGGTKLTVL
As a reminder, the EC50 is the concentration that produces a half-maximal response. Higher therefore signals a need for much substance. For B3, in [5], the concentration for a half-maximal effect (EC50) is 5.5 nM and the “Flow Delta” value amounted to 745000. Moreover, the “EC50 (read off the curve), ADC activity” value in experiment [6] was around 2 nM. In experiment [7], the “ADCC Delta, A549 cells” value stood at 59.8 and the “ADCC EC50 (nM), A549 cells” value amounted to 10.4 nM.

B4: Urelumab (AB-009811) (antibody, V domains shown)
VH: QVQLQQWGAGLLKPSETLSLTCAVYGGSFSGYYWSWIRQSPEKGLEWIGEINHGGYVTYNPSLESRVTISVDTSKNQFSLKLSSVTAADTAVYYCARDYGPGNYDWYFDLWGRGTLVTVSS
VL: EIVLTQSPATLSLSPGERATLSCRASQSVSSYLAWYQQKPGQAPRLLIYDASNRATGIPARFSGSGSGTDFTLTISSLEPEDFAVYYCQQRSNWPPALTFGGGTKVEIK
As for B4, in [8], the “EC50 (read off the curve), 4-1BB reporter activation with PC3” value is around 0.3 nM.

B5: AB-008873 (antibody)
heavy: QVQLQQWGAGLLKPSETLSLTCAVYGGSFSDYYWSWIRQPPGKGLEWIGEVNHRGSINYNNYNPSLKSRVTISVDPSKNQFSLKLTSVTAADTAVYYCAKPLRPHCTNGVCYSGDAFDIWGQGTMVTVASAKTTAPSVYPLAPVCGDTTGSSVTLGCLVKGYFPEPVTLTWNSGSLSSGVHTFPAVLQSDLYTLSSSVTVTSSTWPSQSITCNVAHPASSTKVDKKIEPRGPTIKPCPPCKCPAPNLLGGPSVFIFPPKIKDVLMISLSPIVTCVVVDVSEDDPDVQISWFVNNVEVHTAQTQTHREDYNSTLRVVSALPIQHQDWMSGKEFKCKVNNKDLPAPIERTISKPKGSVRAPQVYVLPPPEEEMTKKQVTLTCMVTDFMPEDIYVEWTNNGKTELNYKNTEPVLDSDGSYFMYSKLRVEKKNWVERNSYSCSVVHEGLHNHHTTKSFSRTPG
light: SYVLTQPPSVSVAPGQTARITCGGNNIGSKNVHWYQQKPGQAPVLVVYDDSDRPSGIPEQFSGSNSGNTATLTISRVEAGDEADYYCQVWDSSSDHLVFGGGTKLTVLGQPKSSPSVTLFPPSSEELETNKATLVCTITDFYPGVVTVDWKVDGTPVTQGMETTQPSKQSNNKYMASSYLTLTARAWERHSSYSCQVTHEGHTVEKSLSRADCS
As to B5, the binding result in experiment [9] was “no binding (tested: about 300 nM)”; in experiment [12], “no binding”; with FcGR1, “binds”. Besides, the “fold (MedFI over isotype control)” value in [10] is 16 fold. Also, in experiment [11], the “ADCC EC50 (nM), EMT6 cells” value is above 100 nM.
